According to article PMC12289034, “A highly potent human antibody neutralizing all serotypes of BK polyomavirus” (PLOS Pathogens, 2025):

B1: mAb 319C07 (antibody, V domains shown)
VH: QVQLQQWGAGLLKPSETLSLTCAVYRGSFSAYYWTWFRQPPGKGLEWIGEINHRGYTNYNPSLRGRVSISVDTSKKQFSLKLRSVNAADTAVYYCATLRSTSGWHDYFDYWGQGTLVTVSS
VL: EIVLTQSPGTLSLSPGERATLSCRASQSVSSSYLAWYQQTPGQAPRLLIYGASSRATGIPDRFSGSGSGTDFTLTISRLEPEDFVVYFCLQYGSSPLTFGPGTKVDIK
notes: heavy chain variable region of 319C07; human IgG1 heavy chain constant region (soluble IgG1 expression vector); kappa light chain of 319C07; also called antibody 319C07; AntiBKV; source: HEK293F, transient transfection, purified from supernatant (Protein G)

Key:
[1] = molecular target: BKPyV VP1 serotype Ib1 pentamer (aa 31-300) (BK polyomavirus) (UniProt P03088); test: crystal structure; VP1 Ib1 pentamer mixed with 319C07 Fab 1:1.7, complex isolated by SEC; hanging drop, 20 °C, 21% PEG1500, 0.1 M MIB pH 4.75; 1.96 Å
[2] = molecular target: T1, BKPyV VP1 serotype II pentamer (aa 31-300) (BK polyomavirus serotype II, isolate …, UniProt A1IHZ0, strain); test: cell-based or functional assay
[3] = molecular target: T2, BKPyV VP1 serotype III (BK polyomavirus, serotype III (isolate …, UniProt P14996, strain)); test: cell-based or functional assay
[4] = molecular target: T3, BKPyV VP1 serotype IVc2 pentamer (aa 31-300) (BK polyomavirus serotype IVc2, isolate …, UniProt B6VQF5, strain); test: cell-based or functional assay
[5] = molecular target: T1, BKPyV VP1 serotype II pentamer (aa …); test: ELISA; VP1 coated on the plate (1 µg/ml, 4 °C over weekend), blocked with 5% skim milk; antibody dilutions in PBS with 0.5% skim milk 1 h; HRP goat anti-human IgG; apparent EC50, three-parameter fit; settings: both partners purified
[6] = molecular target: T2, BKPyV VP1 serotype III; test: as above; settings: both partners purified
[7] = molecular target: T3, BKPyV VP1 serotype IVc2 pentamer (aa …); test: as above; settings: both partners purified

Molecule	stoichiometry N [1]	IC50 of neutralisation of BKPyV serotype II pseudovirus (luciferase in HEK293TT cells, 72 h) [2] [nM]	IC50 of neutralisation of BKPyV serotype III pseudovirus (luciferase in HEK293TT cells, 72 h) [3] [nM]	IC50 of neutralisation of BKPyV serotype IV pseudovirus (luciferase in HEK293TT cells, 72 h) [4] [nM]	EC50 [5] [nM]	EC50 [6] [nM]	EC50 [7] [nM]
BKPyV VP1 serotype Ib1 pentamer (aa 31-300) (from UniProt P03088 31-300) (domain or fragment)	5						
B1		0.00035	0.0295	0.00088	0.06	0.06	0.06
